“And” between values parts separate entries of the source, which are not always exact repeats. Identical values can stand only once.

The target in assay [1] is T1, HER2-Fc (UniProt P04626 23-652).
T1 construct: Coated at 10 µg/ml on ELISA plates; also called HER2 antigen; immobilised HER2 target antigen (ELISA); not shown: Fc part
Description: ELISA, plates coated with 10 µg/ml HER2-Fc, anti-myc IgG detection.

The target in assay [2] is T2, HER2 immobilised on a Biacore chip (UniProt P04626 23-652, limits assumed).
T2 construct: also called immobilised HER2 target antigen (Biacore SPR); HER2 chip
Description: Biacore SPR, HER2 amine-coupled to the chip. For orientation: SPR reads the build-up and loss of mass on a sensor chip optically.

Assay [3] has as its target T2, HER2 immobilised on a Biacore chip. The assay is described as follows: Biacore SPR, HER2 amine-coupled to the chip; Acetate conjugate, DAR 16. On the procedure: (§1) A standard amine-coupling method was used to prepare all Biacore surfaces (CM5 or CM3), as follows. Flow cells were activated individually by injecting a freshly mixed solution of 0.2M EDC in 0.05 M NHS at 30 μl/min. […] Excess NHS ester was deactivated using a 1 M ethanolamine solution. […] The dissociation time was extended to 3600 s for the highest concentration. Surfaces were regenerated with 45 s injection of MgCl₂ […].

The target is the same in assay [4]. The assay is described as follows: Biacore SPR, HER2 amine-coupled to the chip; unmodified scFv (TCT1067). On the procedure:
as §1

Assay [5] has the same target. The assay is described as follows: Biacore SPR, HER2 amine-coupled to the chip; MMAF-C5 conjugate, DAR 5.2. On the procedure:
as §1

The target is the same in assay [6]. The assay is described as follows: Biacore SPR, HER2 amine-coupled to the chip; MMAF-C5 conjugate, DAR 7.1. On the procedure: as §1
Assay [7] addresses T1, HER2-Fc. The assay is described as follows: ELISA, plates coated with 10 µg/ml HER2-Fc, anti-T7 peroxidase detection. On the procedure: (§2) All proteins were detected using the C-terminal T7 Tag which was not expected to be chemically modified (no lysines present). 96-well Immunosorb ELISA plates were coated with 10 μg/ml HER2-Fc in PBS, followed by the test samples, anti-T7 peroxidase conjugate. Extensive PBS washes were in between each layer and detection was with BM-Blue substrate.
(ELISA stands for enzyme-linked immunosorbent assay.)

Assay [8] concerns the target T1, HER2-Fc. The assay is described as follows: ELISA on plates coated with 10 µg/ml HER2-Fc, detection anti-T7 peroxidase conjugate, absorption at 450 nm. On the procedure:
as §2

Broadly, the Kd is the concentration at which binding is half-saturated. For “C6.5 scFv-SPDP conjugate, linker to antibody ratio 5.4, reduced with TCEP”, the Kd with HER2-Fc [1] was found to be 24.9 nM.

As to “C6.5 scFv, non-SPDP modified but reduced control”, the dissociation constant Kd with HER2-Fc [1] came out at 42 nM.

B1: scFv (TCT1067)-Acetate DAR 16 (scFv)
scFv: SGSGGSGQVQLVQSGAEVKKPGESLKISCKGSGYSFTSYWIAWVRQMPGKGLEYMGLIYPGDSDTKYSPSFQGQVTISVDKSVSTAYLQWSSLKPSDSAVYFCARHDVGYCTDRTCAAWPEWLGVWGQGTLVTVSSGGGGSGGGGSGGGGSQSVLTQPPSVSAAPGQKVTISCSGSSSNIGNNYVSWYQQLPGTAPKLLIYGHTNRPAGVPDRFSGSKSGTSASLAISGFRSEDEADYYCASWDYTLSGWVFGGGTKLTVLMASMTGGQQMG
modifications: acetyl groups (from Acetate-NHS) on lysines, N-terminal amine and further residues, 16 additions by LC-MS
notes: also called TCT1067-acetate conjugate 2
As usually defined, the koff is a measure of how fast the partners let go of each other. Broadly, the kon is the rate constant with which the complex forms. A lower kon goes with slower complex formation. In assay [2], B1 yielded a koff of 7.64e-05 s⁻¹ and an association rate constant (kon) of 3.63e+06 M⁻¹ s⁻¹. In addition, the affinity in assay [3], expressed as Kd, was 0.021 nM.

B2: scFv (TCT1067) (scFv)
scFv: SGSGGSGQVQLVQSGAEVKKPGESLKISCKGSGYSFTSYWIAWVRQMPGKGLEYMGLIYPGDSDTKYSPSFQGQVTISVDKSVSTAYLQWSSLKPSDSAVYFCARHDVGYCTDRTCAAWPEWLGVWGQGTLVTVSSGGGGSGGGGSGGGGSQSVLTQPPSVSAAPGQKVTISCSGSSSNIGNNYVSWYQQLPGTAPKLLIYGHTNRPAGVPDRFSGSKSGTSASLAISGFRSEDEADYYCASWDYTLSGWVFGGGTKLTVLMASMTGGQQMG
notes: also called unmodified scFv (TCT1067)
On to B2, for which, in assay [2], the koff was 3.7e-05 s⁻¹ and 3.69e-05 s⁻¹; the kon is 3.9e+06 M⁻¹ s⁻¹ and 3.88e+06 M⁻¹ s⁻¹. Further, binding in assay [4] was characterised by a dissociation constant (Kd) of 0.0095 nM.

B3: scFv (TCT1067)-MMAF-C5 ADC 1 (DAR 5.2) (scFv)
scFv: SGSGGSGQVQLVQSGAEVKKPGESLKISCKGSGYSFTSYWIAWVRQMPGKGLEYMGLIYPGDSDTKYSPSFQGQVTISVDKSVSTAYLQWSSLKPSDSAVYFCARHDVGYCTDRTCAAWPEWLGVWGQGTLVTVSSGGGGSGGGGSGGGGSQSVLTQPPSVSAAPGQKVTISCSGSSSNIGNNYVSWYQQLPGTAPKLLIYGHTNRPAGVPDRFSGSKSGTSASLAISGFRSEDEADYYCASWDYTLSGWVFGGGTKLTVLMASMTGGQQMG
modifications: MMAF-C5 on lysine residues; DAR 6.4 by AAA, 4.0 by MS, average 5.2
notes: also called scFv (TCT1067)-MMAF-C5 DAR 5.2; scFv (TCT1067)-MMAF-C5, DAR 6.4
In assay [5], B3 gave a Kd of 0.0196 nM, a koff of 3.4e-05 s⁻¹ and a kon of 1.8e+06 M⁻¹ s⁻¹.

B4: scFv (TCT1067)-MMAF-C5 ADC 2 (DAR 7.1) (scFv)
scFv: SGSGGSGQVQLVQSGAEVKKPGESLKISCKGSGYSFTSYWIAWVRQMPGKGLEYMGLIYPGDSDTKYSPSFQGQVTISVDKSVSTAYLQWSSLKPSDSAVYFCARHDVGYCTDRTCAAWPEWLGVWGQGTLVTVSSGGGGSGGGGSGGGGSQSVLTQPPSVSAAPGQKVTISCSGSSSNIGNNYVSWYQQLPGTAPKLLIYGHTNRPAGVPDRFSGSKSGTSASLAISGFRSEDEADYYCASWDYTLSGWVFGGGTKLTVLMASMTGGQQMG
modifications: MMAF-C5 on lysine residues; DAR 8.6 by AAA, 5.5 by MS, average 7.1
notes: also called scFv (TCT1067)-MMAF DAR 8.7
In assay [6], B4 came in with a Kd of 0.0038 nM, a koff of 1.7e-05 s⁻¹ and a kon of 4.6e+06 M⁻¹ s⁻¹.

B5: scFv (TCT1067)-P5-C5 DAR 10.9 (scFv)
scFv: SGSGGSGQVQLVQSGAEVKKPGESLKISCKGSGYSFTSYWIAWVRQMPGKGLEYMGLIYPGDSDTKYSPSFQGQVTISVDKSVSTAYLQWSSLKPSDSAVYFCARHDVGYCTDRTCAAWPEWLGVWGQGTLVTVSSGGGGSGGGGSGGGGSQSVLTQPPSVSAAPGQKVTISCSGSSSNIGNNYVSWYQQLPGTAPKLLIYGHTNRPAGVPDRFSGSKSGTSASLAISGFRSEDEADYYCASWDYTLSGWVFGGGTKLTVLMASMTGGQQMG
modifications: P5-C5 on lysine residues; DAR 10.4 by AAA, 11.7 by MS, overall average 10.9
notes: also called TCT1067-P5C5 ADC 1; compound 71
In assay [2], B5 registered a Kd of 0.302 nM, a koff of 7.13e-05 s⁻¹ and a kon of 236000 M⁻¹ s⁻¹.

B6: scFv (TCT)-Acetate DAR 15 (scFv)
scFv: SGSGGSGQVQLVQSGAEVKKPGESLKISCKGSGYSFTSYWIAWVRQMPGKGLEYMGLIYPGDSDTKYSPSFQGQVTISVDKSVSTAYLQWSSLKPSDSAVYFCARHDVGYCSSSNCAAWPEYFQHWGQGTLVTVSSGGGGSGGGGSGGGGSQSVLTQPPSVSAAPGQKVTISCSGSSSNIGNNYVSWYQQLPGTAPKLLIYGHTNRPAGVPDRFSGSKSGTSASLAISGFRSEDEADYYCAAWDDSLSGWVFGGGTKLTVLMASMTGGQQMG
modifications: acetyl groups (from Acetate-NHS) on lysines, N-terminal amine and further residues, 15 additions by LC-MS
notes: also called TCT-acetate conjugate 1
Regarding B6, in assay [2], binding was put at a Kd of 2.9 nM, the off-rate (koff) was found to be 0.0171 s⁻¹ and the on-rate (kon) came out at 5.93e+06 M⁻¹ s⁻¹.

B7: scFv (TCT)-MMAF-C5 ADC 1 (DAR 5.6) (scFv)
scFv: SGSGGSGQVQLVQSGAEVKKPGESLKISCKGSGYSFTSYWIAWVRQMPGKGLEYMGLIYPGDSDTKYSPSFQGQVTISVDKSVSTAYLQWSSLKPSDSAVYFCARHDVGYCSSSNCAAWPEYFQHWGQGTLVTVSSGGGGSGGGGSGGGGSQSVLTQPPSVSAAPGQKVTISCSGSSSNIGNNYVSWYQQLPGTAPKLLIYGHTNRPAGVPDRFSGSKSGTSASLAISGFRSEDEADYYCAAWDDSLSGWVFGGGTKLTVLMASMTGGQQMG
modifications: MMAF-C5 (from MMAF-C5-NHS, compound 78) on lysine residues; DAR 6.64 by AAA, 4.5 by MS, average 5.6
notes: also called scFv (TCT)-MMAF-C5 1 DAR 5.6; scFv (TCT)-MMAF-C5, DAR 6.6
In assay [2], B7 returned a Kd of 5.4 nM, an off-rate (koff) of 0.0042 s⁻¹ and a kon of 770000 M⁻¹ s⁻¹.

B8: scFv (TCT)-MMAF-C5 ADC 2 (DAR 6.8) (scFv)
scFv: SGSGGSGQVQLVQSGAEVKKPGESLKISCKGSGYSFTSYWIAWVRQMPGKGLEYMGLIYPGDSDTKYSPSFQGQVTISVDKSVSTAYLQWSSLKPSDSAVYFCARHDVGYCSSSNCAAWPEYFQHWGQGTLVTVSSGGGGSGGGGSGGGGSQSVLTQPPSVSAAPGQKVTISCSGSSSNIGNNYVSWYQQLPGTAPKLLIYGHTNRPAGVPDRFSGSKSGTSASLAISGFRSEDEADYYCAAWDDSLSGWVFGGGTKLTVLMASMTGGQQMG
modifications: MMAF-C5 on lysine residues; DAR 8.0 by AAA, 5.5 by MS, average 6.8
notes: also called scFv (TCT)-MMAF-C5 DAR 6.8; scFv (TCT)-MMAF DAR 8
As to B8, in assay [2], the affinity, expressed as Kd, was 3.6 nM; the koff is 0.0042 s⁻¹; the kon was 1.2e+06 M⁻¹ s⁻¹.

B9: scFv (TCT)-Cemadotin ADC sample 3 (DAR 11) (scFv)
scFv: SGSGGSGQVQLVQSGAEVKKPGESLKISCKGSGYSFTSYWIAWVRQMPGKGLEYMGLIYPGDSDTKYSPSFQGQVTISVDKSVSTAYLQWSSLKPSDSAVYFCARHDVGYCSSSNCAAWPEYFQHWGQGTLVTVSSGGGGSGGGGSGGGGSQSVLTQPPSVSAAPGQKVTISCSGSSSNIGNNYVSWYQQLPGTAPKLLIYGHTNRPAGVPDRFSGSKSGTSASLAISGFRSEDEADYYCAAWDDSLSGWVFGGGTKLTVLMASMTGGQQMG
modifications: Cemadotin on all but one of the surface lysine residues (11/12), DAR 10.96 by AAA
notes: also called TCT-Cem ADC3; TCT-Cemadotin conjugate 3
What is called EC50 (read off the curve) is the midpoint of the concentration-response curve. A lower EC50 (read off the curve) goes with a more potent agent. Regarding B9, binding with HER2-Fc [7] was characterised by a dissociation constant (Kd) of 27.5 nM. Also, the concentration for a half-maximal effect (EC50 (read off the curve)) with HER2-Fc [8] was roughly 40 nM.

B10: scFv (TCT)-Cemadotin ADC sample 2 (DAR 8.2) (scFv)
scFv: SGSGGSGQVQLVQSGAEVKKPGESLKISCKGSGYSFTSYWIAWVRQMPGKGLEYMGLIYPGDSDTKYSPSFQGQVTISVDKSVSTAYLQWSSLKPSDSAVYFCARHDVGYCSSSNCAAWPEYFQHWGQGTLVTVSSGGGGSGGGGSGGGGSQSVLTQPPSVSAAPGQKVTISCSGSSSNIGNNYVSWYQQLPGTAPKLLIYGHTNRPAGVPDRFSGSKSGTSASLAISGFRSEDEADYYCAAWDDSLSGWVFGGGTKLTVLMASMTGGQQMG
modifications: Cemadotin on lysine residues, average DAR 8.2 by AAA
notes: also called TCT-Cem ADC2; TCT-Cemadotin conjugate 2
In turn, B10 had a Kd with HER2-Fc [7] of 15.5 nM. Besides, the “EC50 (read off the curve)” value with HER2-Fc [8] is roughly 20 nM.

B11: scFv (TCT)-Cemadotin ADC sample 1 (DAR 3.9) (scFv)
scFv: SGSGGSGQVQLVQSGAEVKKPGESLKISCKGSGYSFTSYWIAWVRQMPGKGLEYMGLIYPGDSDTKYSPSFQGQVTISVDKSVSTAYLQWSSLKPSDSAVYFCARHDVGYCSSSNCAAWPEYFQHWGQGTLVTVSSGGGGSGGGGSGGGGSQSVLTQPPSVSAAPGQKVTISCSGSSSNIGNNYVSWYQQLPGTAPKLLIYGHTNRPAGVPDRFSGSKSGTSASLAISGFRSEDEADYYCAAWDDSLSGWVFGGGTKLTVLMASMTGGQQMG
modifications: Cemadotin (from Cemadotin-NHS, compound 2) on lysine residues, average DAR 3.9 by AAA
notes: also called TCT-Cem ADC1; TCT-Cemadotin conjugate 1
In the assay with HER2-Fc [7], B11 had a Kd of 3.3 nM. In addition, in the assay with HER2-Fc [8], the “EC50 (read off the curve)” value is roughly 4 nM.

Source of the values: patent publication US20220233706A1 (ANTIKOR BIOPHARMA, published 2022).
